Assay results published in patent publication US7667100B2, “Nucleic acid compositions conferring herbicide resistance” (Dow AgroSciences LLC, priority 2002, dated 2010).

How the values were obtained:
[1] = tested on: Nicotiana benthamiana; experiment: Evaluation of auxin tolerance in greenhouse plants inoculated with clone transcript and sprayed with herbicide; assay type: in vivo; conditions: for reproducibility of auxin tolerance from Trial #1 to Trial #2: greenhouse, 30% or more of test population tolerant by 14 dat
Experimental: All primary hit sequences were evaluated for tolerance in larger plants, maintained under greenhouse conditions as described below.
Plant Growth and Maintenance. Nb seeds were sown in 6.5 cm pots filled with Redi-earth medium (The Scotts Company, Marysville, Ohio) pre-wetted by injection of Hoagland's fertilizer solution [all from the Scotts Company: 147 kg Peters Excel 15-15-15 Cal-Mag, 68 kg Peters Excel 15-0-0 Cal-Lite (15% Ca), and 45 kg Peters Excel 10-0-0 MagNitrate (10% Mg) in hot tap water to 596 L total volume] into irrigation water at a ratio of 200:1, using an injection system (H. E. Anderson, Muskogee Okla,). Seededpots were placed in the greenhouse for 1 day, transferred to a 27° C. germination chamber (Carolina Greenhouses, Kinston, N.C.) for 2 days, and then returned to the greenhouse. Shade curtains (33% transmittance) were used in the greenhouse to reduce solar intensity. To ensure 16 hour day length and supplement solar radiation on overcast days, artificial lighting consisting of a 1:1 mixture of metal halide and high pressure Sylvania sodium lamps was used, delivering approximately 220 μmol/m^2/s. Evaporative cooling and steam heat were used to maintain a daytime set point of 27° C. and a nighttime temperature of 22° C. At approximately 7 days post sowing (dps), seedlings were thinned to one seedling per pot and at 17 to 21 dps, the pots were spaced farther apart to accommodate plant growth. Plants were watered with Hoagland's solution as required. Following inoculation, waste irrigation water was collected and treated with 0.5% sodium hypochlorite for 10 minutes to neutralize any viral contamination before discharging into the municipal sewer.
Plant Inoculation. For each clone, 50 test plants as well as 10 GFP and bar (Thompson et al., EMBO J. 6:2519 [19870]) negative control plants were inoculated as follows: 2.0 mL of inoculum per clone were prepared by combining equal volumes of NCAP transcript and FES buffer [0.1 M glycine, 0.06 M K2HPO4, 1% sodium pyrophosphate, 1% diatomaceous earth (Sigma Chemical Company, St. Louis, Mo.), and either 1% silicon carbide (Aldrich Chemical Company, Milwaukee, Wis.), or 1% Bentonite (Sigma Chemical Company, St. Louis, Mo.)]. The inoculum was applied to each plant at 17 days post sowing by pipetting onto the upper surface of leaves 3 and 4 (˜20 μL per leaf). The inoculum was then spread across each leaf surface using a 3″ cotton tipped applicator (Calapro Swab, Fisher Scientific, Pittsburgh, Pa.) and a gloved finger to support the leaf. Following inoculation the plants were misted with deionized water.
Infection Scoring. At 8 days post inoculation (dpi), the plants were visually examined and a numerical score was assigned to each plant to indicate the extent of viral infection symptoms: 0=no infection, 1=possible infection, 2=infection symptoms limited to leaves <50-75% fully expanded, 3=typical systemic infection, 4=atypically severe infection, often accompanied by moderate to severe wilting and/or necrosis. Plants receiving an infection rating of 0, 1, or 4 were discarded.
Herbicide spraying. At 9 dpi, the well infected plants (infection score of 3, sometimes 2) were divided into 3 treatment groups. Group 1, to be sprayed with solvent only, contained 4 plants per test clone (2 plants per negative control) and Groups 2 and 3, to be treated with 13 or 40 g ae/ha, respectively, each consisted of 12 test plants per clone and 2 plants per negative control. […]

[2] = tested on: Nicotiana benthamiana; experiment: Cross-resistance testing against six auxin compounds (greenhouse); assay type: in vivo; conditions: for tolerance to picloram (Compound #5): 10 g ae/ha and 1/2x; for tolerance to positive control 4-amino-3,6-dichloropyridine-2-carboxylic acid (Compound #6): 10 g ae/ha and 1/2x (5 g ae/ha); for tolerance to dicamba (Compound #3): 64 g ae/ha and 1/2x; for tolerance to quinclorac (Compound #1): 200 g ae/ha and 1/2x; for extent of cross-resistance to the six auxin compounds: two trials, two doses per auxin, thresholds 25% or 35% injury or less
Source text: Six compounds, representing five classes of auxin chemistry, were selected for testing the extent of auxinic tolerance of five hit sequences (129965 (SEQ ID NO:10), 130213 (SEQ ID NO: 14), 130294 (SEQ ID NO:360), 130994 (SEQ ID NO:361), and 129870 (SEQ ID NO:359)). The compounds included the following: • 1) quinclorac (BASF Corp., Research Triangle, N.C.) • 2) (2,4-dichlorophenoxy) acetic acid (Dow AgroSciences, Indianapolis, Ind.) • 3) dicamba (Monsanto, St. Louis, Mo.) • 4) benazolin (AgrEvo USA Company, Wilmington, Del.) • 5) picloram (Dow AgroSciences, Indianapolis, Ind.) • 6) 4-amino-3,6-dichloropyridine-2-carboxylic acid (Dow AgroSciences, Indianapolis, Ind.) Compound #6 served as a positive control, as these five sequences were identified for their herbicide tolerant function using this auxin (see Example 9). Compound #1 represents the quinoline carboxylic acid chemical family, #2 is in the phenoxy carboxylic acid class, #3 is benzoic acid chemistry, #4 is unique to any currently defined class, and #5 is in the same family as the positive control, pyridine carboxylic acids.
The protocol was essentially the same as that described in Example 9 for greenhouse evaluations. However, an individual experiment consisted of 200 test plants plus 35 GFP and 35 bar negative control plants inoculated per clone. […] Two doses per auxin were tested, with as many as 12 well-infected test plants and 2 of each of the negative controls per dose.
The six auxin solutions were prepared by dissolving solid compound in General Purpose Solvent (GPS: 97%DMSO: 3% acetone) to achieve the following spray rates (g ae/ha) when using the spray applicator and parameters outlined in Example 9: Compound #1) 200; 2) 42; 3) 64; 4) 200; 5) 10; 6) 10. From each of these solutions, a portion was diluted with an equal volume of GPS, resulting in 1× (“high dose”) and ½× (“low dose”) concentrations for spraying. Before spray application, each auxin solution was mixed with an equal volume of diluent containing surfactants for effective penetration. The diluent was prepared as follows: 420 mL GPS, 460 mL DI water, 120 mL isopropyl alcohol, 10.167 mL Agri-Dex (Helena Chemical Co., Memphis, Tenn.), and 0.167 mL Triton X-155 (Sigma Chemical Co., St. Louis, Mo.). In addition to the 200 and 100 g ae/ha rates tested for Compound #4 (benazolin), a concentration of 250 g ae/ha was also formulated as described above and tested.
Plants were sprayed and evaluated as described in Example 9. FIG. 7 summarizes the sequences tested and the highest dose of the compounds against which tolerance was observed. […] Results are reported in FIG. 7 for each of the trials with each construct.
The positive control (Compound #6) was formulated differently in this set of evaluations from that described in Example 9, for consistency in the solvent/surfactant background from which to compare the activity of the individual sequences against each auxin. Thus, the spray rate used for evaluation was lower than previous experiments, 5 vs. 13 g ae/ha. The need to lower the dose with this formulation to prevent total chlorosis and/or necrosis was likely due to the addition of DMSO, Agri-Dex, and Triton X-155 which were not used in Example 9.

B1: 130213: Poppy cDNA clone; auxin tolerance hit sequence (nucleic acid)
DNA: TTAATTAAGTCGACGAATTCATATGAAGAAATGGTTGAATTTATGGAAAAAGTAACAACAAATGTTGAATCAGAGGAACTTTCAGTTGAAGAGAGAAATTTATTGTCAGTTGCTTACAAAAATGTGATTGGTGCACGCAGAGCATCATGGAGAATTATTTCATCAATTGAACAGAAAGAAGAAAGCCGTGGTAACGAAGAGAATGTATTGACCATTCGTGATTATAGATCTAAGATTGAAACTGAACTTTCAGGCATCTGTGATGGGATTTTGAAGTTGCTTGATACTAGATTGATTCCATCTGCATCTTCTGGTGATTCTAAAGTGTTTTATTTGAAAATGAAAGGTGATTATCATCGTTATTTGGCTGAGTTTAAAACTGGTACCGAAAGGAAAGAAGCTGCTGAAAGTACCCTTTCTGCTTATAAATCTGCTCAGGATATCGCAACTGCTGAACTTGCACCCACTCACCCAATCAGGCTGGGACTTGCTCTTAACTTTCTCCGTCTTTTACTACGAGATCTTGAATTCTCCTGCCGTGCTTGTAATCTCGCCAAACAGGCATTTGATGAGGCTATCGCGGAGCTGGATACCCTTGGTGAAGAATCATACAAAGACAGCACTCTAATCATGCAGCTCCTTCGTGACAATCTTACTCTGTGGACCTCCGACATGCAGGATGATGGTGCAGATGAAATTAAAGAAGCATCCAAGCCTGAAGATGAACATTAATGATAGTTTGTCTGCCACATTTAGGATCTTACCTCCTCTCAGTTTGTTTTATTAAAAGGAGAAGGTGCTTTCTTGGTACACAACTCCTCCAAGTCTACTATTAATTATTAAGGAGTTTAGGGTGGGTACTGTTAGTTTGTCATTCTTCTTATCCTTTGTGCTCGTCTTTTCCTATCTTAATTCTTCTCTTAAAAGAGTTTGAAGTTATATGTTTATCTGAATCTGTGTGGGAACTCCGTTTTATCTAAATTATCTTTTAAGATGACGATAAAAAAAAAAAAAAAAAAA
modifications: Poppy
For B1, the “plants demonstrating auxin tolerance” value ([1]; 14 days after treatment (dat), 130213 homolog trial, tolerance = 25% injury or less after 13 or 40 g ae/ha 4-amino-3,6-dichloropyridine-2-carboxylic acid) was 17%, the “reproducibility of auxin tolerance from Trial #1 to Trial #2” value [1] was “reproducible auxin tolerance” and the “tolerance to picloram (Compound #5)” value [2] was “additional tolerance to picloram and quinclorac when the 35% injury tolerance criterion was used”. For the same molecule, the “tolerance to positive control 4-amino-3,6-dichloropyridine-2-carboxylic acid (Compound #6)” value [2] was “tolerance consistently occurred at the lower threshold (25% injury or less)”, the “tolerance to dicamba (Compound #3)” value [2] was “strongly effective” and the “tolerance to quinclorac (Compound #1)” value [2] was “additional tolerance to picloram and quinclorac when the 35% injury tolerance criterion was used”. The “extent of cross-resistance to the six auxin compounds” value [2] was “tolerance was observed against four compounds”.

B2: 130294: Poppy cDNA clone; auxin tolerance hit sequence (nucleic acid)
DNA: TTAATTAAGTCGACGAATTCACATCTAAAGTCAACAACAAGAGCTTCTCTCTTCTCCTCGTCTCTGTTCTCCTCTCTTTTGCAATCCTCTCTCAATCTGCTGATGATTGTGTATACACAGTATACACAAGAACAGGATCAATCATCAAAGGAGGAACGGATTCAAAAATCTCACTAAGATTATACAGCAAATACGGTAAGTACATCGAGATCCCAAATCTTGAATCATGGGGTGGATTAATGGGTCCTGGTTACGATTATTTCGAAAGAGGTAATCTTGATATCTTCAGCGGAAGAGGTTATTGTCTGGGTTCACCGGTTTGTGCCATGAATCTGACTTCCGATGGTACTGGTTCCGGTCACGGATGGTATGTGAATTATGTTGAAGTTACTACTACCGGTGCACATATTAATTGTGGTCAACAGAATTTTGAAGTGGAAGATTGGCTTGCTCTTGATAGATCTCCTTATAGTCTTACCGCTATCAAGAATAATTGTAATCAGAAATTATCTGATCATGATTCTCATTCTGCTGATCAGTCTATGTAAAATTTGATCTCTTGTTTGATTCGGTGGTGGTCTAGTATGAGTGATCGGACGGTCGTCATTGTGTGTTGTAATGTTGAAATTATTTTCTTGAATAAAATGATTGAGTGAGTAGTGTTTGATTTTGCTTGGCCATCTTAGACATGATGGTGAGACTGTTTCTCGATTCGATGCAATTTTTTGGTTTTCTTGGTTGCAATCAATTCACGTTTGGTGAAAAAAAAAAAAAAAAAAAAAAAAAAAAAAAAAAAAAAAAAAAA
modifications: Poppy
For B2, the “reproducibility of auxin tolerance from Trial #1 to Trial #2” value [1] was “reproducible auxin tolerance”, the “tolerance to picloram (Compound #5)” value [2] was “clear resistance to dicamba and picloram when the 35% rating was considered” and the “tolerance to positive control 4-amino-3,6-dichloropyridine-2-carboxylic acid (Compound #6)” value [2] was “tolerance consistently occurred at the lower threshold (25% injury or less)”. The “tolerance to dicamba (Compound #3)” value [2] was “clear resistance to dicamba and picloram when the 35% rating was considered”, the “tolerance to quinclorac (Compound #1)” value [2] was “consistently tolerant to quinclorac exposure at the 25% injury threshold” and the “extent of cross-resistance to the six auxin compounds” value [2] was “tolerance was observed against four compounds”.
